# Measurements published in patent US20210070807A1 (MOREHOUSE SCHOOL OF MEDICINE, published 2021).
# Molecular target: mortalin (UniProt P38646 47-679)
# Assay: cell-based or functional assay
# mortalin, sequence (P38646 47-679 limits assumed): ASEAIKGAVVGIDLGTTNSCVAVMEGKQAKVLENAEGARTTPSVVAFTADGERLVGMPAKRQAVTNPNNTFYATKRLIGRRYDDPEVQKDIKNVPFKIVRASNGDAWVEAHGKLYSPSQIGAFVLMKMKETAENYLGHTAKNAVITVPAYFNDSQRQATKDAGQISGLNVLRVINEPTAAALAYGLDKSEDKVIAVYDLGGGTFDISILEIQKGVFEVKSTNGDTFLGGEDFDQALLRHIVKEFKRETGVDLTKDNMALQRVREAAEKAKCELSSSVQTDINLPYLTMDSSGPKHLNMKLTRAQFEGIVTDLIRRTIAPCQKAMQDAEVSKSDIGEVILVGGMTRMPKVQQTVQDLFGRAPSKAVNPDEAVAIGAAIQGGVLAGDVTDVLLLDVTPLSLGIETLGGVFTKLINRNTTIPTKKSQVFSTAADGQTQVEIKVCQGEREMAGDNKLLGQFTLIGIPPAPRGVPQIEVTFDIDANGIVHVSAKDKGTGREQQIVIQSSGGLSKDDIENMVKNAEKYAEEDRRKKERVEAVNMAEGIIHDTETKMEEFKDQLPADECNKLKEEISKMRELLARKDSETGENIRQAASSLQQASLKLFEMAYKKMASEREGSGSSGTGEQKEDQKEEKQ
binder,measurement,value
VGFPVAAVGFPVGRKKRRQRRRPPQ [SMRwt-CPP peptide],"IC50 of proliferation, MTT assay, K562 cells, 24 hours",907 nM/mL
same,"IC50 of proliferation, MTT assay, MCF-7 cells, 24 hours",180 nM/mL
same,"IC50 of proliferation, MTT assay, MDA-MB-231 cells, 24 hours",476 nM/mL
